Measured values from patent publication US5955431A, “Mast cell protease peptide inhibitors” (Brigham and Women's Hospital, Inc., priority 1998, dated 1999).
Where a SMILES comes first, the peptide text is derived from it. Where no end group is shown, it is not given here. The star is where a group is joined. pNA = O=[N+]([O-])c1ccc(N*)cc1; Tos = Cc1ccc(S(=O)(=O)*)cc1; Bz = O=C(c1ccccc1)*

T1: mMCP-6/heparin complex (Mus musculus, UniProt P21845)
T1 construct: endogenous pro-peptide followed by EK-susceptible peptide (Asp-Asp-Asp-Asp-Lys) (N, cleaved yes); made in house; host or cells: baculovirus; Spodoptera frugiperda 9 for virus, Trichoplusia ni High Five insect cells for expression
T1 sequence (P21845 32-276): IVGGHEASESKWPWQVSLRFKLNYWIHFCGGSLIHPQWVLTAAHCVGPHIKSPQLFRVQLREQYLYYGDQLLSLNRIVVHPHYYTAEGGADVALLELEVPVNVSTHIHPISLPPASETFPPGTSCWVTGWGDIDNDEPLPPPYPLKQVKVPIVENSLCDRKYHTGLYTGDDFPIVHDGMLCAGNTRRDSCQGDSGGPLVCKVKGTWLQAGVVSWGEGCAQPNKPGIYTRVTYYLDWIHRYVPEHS

T2: recombinant mMCP-6-FLAG (Mus musculus, UniProt P21845)
T2 construct: endogenous pro-peptide followed by EK-susceptible peptide (Asp-Asp-Asp-Asp-Lys) (N, cleaved yes); made in house; host or cells: baculovirus; Spodoptera frugiperda 9 for virus, Trichoplusia ni High Five insect cells for expression
T2 sequence (P21845 32-276): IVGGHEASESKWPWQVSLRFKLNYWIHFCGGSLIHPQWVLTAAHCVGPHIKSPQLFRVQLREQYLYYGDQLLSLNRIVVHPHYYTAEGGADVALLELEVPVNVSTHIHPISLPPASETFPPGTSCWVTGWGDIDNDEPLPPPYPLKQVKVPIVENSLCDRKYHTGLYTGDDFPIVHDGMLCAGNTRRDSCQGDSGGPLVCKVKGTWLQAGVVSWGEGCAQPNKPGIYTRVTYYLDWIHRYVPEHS

B1: trypsin: serine protease used as comparison in fibroblast adhesion test (protein, UniProt P00760 24-246, looked up)
Serine protease 1: IVGGYTCGANTVPYQVSLNSGYHFCGGSLINSQWVVSAAHCYKSGIQVRLGEDNINVVEGNEQFISASKSIVHPSYNSNTLNNDIMLIKLKSAASLNSRVASISLPTSCASAGTQCLISGWGNTKSSGTSYPDVLKCLKAPILSDSSCKSAYPGQITSNMFCAGYLEGGKDSCQGDSGGPVVCSGKLQGIVSWGSGCAQKNKPGVYTKVCNYVSWIKQTIASN
B2: mMCP-6-FLAG/heparin complex: recombinant mMCP-6-FLAG bound to heparin glycosaminoglycan (protein, UniProt P21845 32-276, looked up)
Tryptase beta-2: IVGGHEASESKWPWQVSLRFKLNYWIHFCGGSLIHPQWVLTAAHCVGPHIKSPQLFRVQLREQYLYYGDQLLSLNRIVVHPHYYTAEGGADVALLELEVPVNVSTHIHPISLPPASETFPPGTSCWVTGWGDIDNDEPLPPPYPLKQVKVPIVENSLCDRKYHTGLYTGDDFPIVHDGMLCAGNTRRDSCQGDSGGPLVCKVKGTWLQAGVVSWGEGCAQPNKPGIYTRVTYYLDWIHRYVPEHS
modifications: C-terminal FLAG tag; complexed with heparin

What follows are molecules tested on Swiss albino mouse skin-derived 3T3 fibroblasts (assay: adhesion and growth of fibroblasts on fibronectin-coated culture dishes). Settings: 15 min at 37° C.
Format: cell-based
Experimental: However, these cells will become less adhesive and divide in vitro when they are trypsin treated. To determine if mMCP-6-FLAG could specifically alter the growth and/or adhesion of these cells, the fibroblasts were allowed to attach to replicate fibronectin-coated culture dishes and then were incubated for 15 min at 37° C. with buffer alone or buffer containing either pro-EK-mMCP-6-FLAG, mMCP-6-FLAG, mMCP-7-FLAG, or trypsin. […] SDS-PAGE/immunoblot analysis of the supernatants from the result cultures confirmed that fibronectin was degraded in the mMCP-6-FLAG-treated cultures but not in the pro-EK-mMCP-6-FLAG or mMCP-7-FLAG treated cultures.

In the case of B1, the “adhesion/shape of fibroblasts on fibronectin-coated dishes” value is reported as “rapidly induced the cultured fibroblasts to round up”.

Same assay, conditions: 40 min incubation

B1 was tested, and the “fibroblasts remaining attached to the culture dish” value was “very few fibroblasts remained attached”.

The molecules below were run against T1, mMCP-6/heparin complex (assay: screening of tryptase-specific phage peptide display library with mMCP-6-FLAG in the presence of heparin). Settings: four rounds of treatment, equal weight amount of heparin.
Format: biochemical
Text: (§1) Screening of a Tryptase-Specific, Bacteriophage Peptide Display Library with mMCP-6--A peptide display library that encodes an altered pIII containing at its N terminus the FLAG peptide followed by an 8-residue hypervariable peptide was screened with recombinant mMCP-6-FLAG. Briefly, phage were obtained that express on their surface a pill fusion protein with an extension peptide consisting of the FLAG peptide and a hypervariable octamer peptide containing a Lys/Arg residue at the PI site. After the varied phages in the library were allowed to bind to the anti-FLAG IgG column, the immuno-affinity column was incubated with recombinant mMCP-6-FLAG in the presence or absence of heparin. Those phage recovered in the column's eluate were amplified, and the selection procedure was repeated one lo three times. By determining the nucleotide sequence of the relevant portion of the geneIII construct in each clone, the amino acid sequence of the mMCP-6-susceptible peptide in the random domain of the pIII fusion protein was deduced. To prepare the phage column used in the screening process, 10 ml of the phage-enriched supernatant was added to 2 ml of 20% polyethylene glycol (8 kDa; Sigma) and 2.5 M NaCl and the mixture incubated at 4° C. for 30 min. After a 30 min centrifugation at 10,000 g, the recombinant phage in the pellet were resuspended in 2 ml of 150 mM NaCl, 1 mM […], and 10 mM sodium phosphate, pH 7.0, and applied to a 1-ml affinity column containing the anti-FLAG M1 monoclonal antibody. The column was washed 3 times with 10 ml of the same pH 7.0 buffer to remove unbound phage. EK-activated mMCP-6-FLAG (~50 μg in 200 μl buffer) in the absence or presence of heparin glycosaminoglycan (~50 μg) was added, and the column was sealed and incubated at room temperature for 90 min. […] Log-phase E. coli were infected with the obtained phage to produce phagemid. Bacteria were again grown in 2×YT medium containing 2% glucose and the phagemid in the bacteria were converted to phage with the addition of helper phage. This screening procedure was repeated up to 4 times to select the phage in the library which are most susceptible to degradation by mMCP-6-FLAG.
(§2) E. coli was infected with resulting mMCP-6-FLAG-susceptible phage to generate phagemids. The infected bacteria were seeded onto a plate containing 1.5% agar, 2% Bacto-tryptone, 0.5% Bacto-yeast extract, 2% glucose, 0.09 M NaCl, 0.01 M MgCl2, and 100 μg/ml ampicillin. Individual clones were isolated and grown overnight at 37° C. in 2 ml of 2×YT medium containing 2% glucose with 50 μg/ml ampicillin. One ml of the overnight cultures were centrifuged at ~12,000 g for 5 min. The bacteria in the pellets were lysed and the DNAs were extracted with mini-prep method. The DNAs were digested with NotI and EcoRI restriction enzymes at 37° C. overnight. The digested DNA mini-preps were subjected to electrophoresis on a 1% agarose gel, and those individual phage clones with ~1300-bp inserts were selected for maxi-preparation of their DNAs using nucleobond DNA-binding columns (The Nest Group). The nucleotide sequences which encode the 8-mer, protease-susceptible peptide domains in the fusion proteins were determined.

In order of falling “Clones (number of clones with this mMCP-6-susceptible peptide)” value (“Clones” for short):
1. TPLLKSWL  7
2. RNRQKTNN  4
3. SLSSRQSP  2
4. PKETKQTN  1
5. SVLPKLRI  1

Same assay, conditions: mMCP-6/heparin complex

RNRQKT [SEQ. ID NO. 1] was tested, and the “susceptibility of the sequence to cleavage” value was “susceptible to cleavage by the mMCP-6/heparin complex”.

Same assay, conditions: two rounds of treatment, equal weight amount of heparin

In order of rising “Clones” value:
1. PFTHKSLS  1
2. PKETKQTN  1
3. SVLPKLRI  1
4. SLSSRQSP  3
5. TPLLKSWL  5
6. RNRQKTNN  11

Each molecule was assayed against T2, recombinant mMCP-6-FLAG (assay: spectrophotometric cleavage of trypsin-susceptible p-nitroanilide substrates by EK-activated mMCP-6-FLAG). Settings: in the absence of heparin.
Format: biochemical
Experimental: Purified pro-EK-mMCP-6-FLAG (~100 μg in 100 μl) was separately mixed with 100 μl of a pH 5.2 buffer consisting of 50 mM sodium acetate and 5 mM calcium chloride. One μl of a solution containing 550 U of calf intestine EK (Biozyme) was added to each, and the mixture was incubated at 37° C. generally for 3 h to allow EK to activate the zymogen in the absence of heparin. The spectrophotometric method of Svendsen and coworkers (Throm. Res. 1972, 1:267-278) was used to determine whether or not mMCP-6-FLAG is enzymatically active. Generally, 1-μl samples of each activation reaction were placed in 1 ml of a pH 7.4 buffer containing 25 mM sodium phosphate, 1 mM EDTA, and 50 μg of tosyl-Gly-Pro-Lys-p-nitroanilide. The change in optical density at 405 nm was then determined after a 3-min incubation at room temperature. The ability of recombinant mMCP-6-FLAG to cleave the trypsin-susceptible substrates tosyl-Gly-Pro-Arg-p-nitroanilide, benzoyl-Ile-Glu-Gly-Arg-p-nitroanilide, benzoyl-Pro-Phe-Arg-p-nitroanilide, and acetyl-Ile-Glu-Ala-Arg-p-nitroanilide were also evaluated.

With `Cc1ccc(S(=O)(=O)NCC(=O)N2CCC[C@H]2C(=O)N[C@@H](CCCNC(=N)N)C(=O)Nc2ccc([N+](=O)[O-])cc2)cc1` [tosyl-Gly-Pro-Arg-p-nitroanilide] (Tos-Gly-Pro-Arg-pNA) the “cleavage of substrate by EK-activated tryptase (mMCP-6-FLAG)” value was “readily cleaves”.
For `Cc1ccc(S(=O)(=O)NCC(=O)N2CCC[C@H]2C(=O)N[C@@H](CCCCN)C(=O)Nc2ccc([N+](=O)[O-])cc2)cc1` [tosyl-Gly-Pro-Lys-p-nitroanilide] (Tos-Gly-Pro-Lys-pNA), the “cleavage of substrate by EK-activated tryptase (mMCP-6-FLAG)” value was “readily cleaves”.

Same assay, conditions: in the presence or absence of heparin

In the case of `CC[C@H](C)[C@H](NC(=O)c1ccccc1)C(=O)N[C@@H](CCC(=O)O)C(=O)NCC(=O)N[C@@H](CCCNC(=N)N)C(=O)Nc1ccc([N+](=O)[O-])cc1` [benzoyl-Ile-Glu-Gly-Arg-p-nitroanilide] (Bz-IEGR-pNA), the “cleavage of substrate by mMCP-6-FLAG” value is reported as “does not effectively cleave”.
In the case of `N=C(N)NCCC[C@H](NC(=O)[C@H](Cc1ccccc1)NC(=O)[C@@H]1CCCN1C(=O)c1ccccc1)C(=O)Nc1ccc([N+](=O)[O-])cc1` [benzoyl-Pro-Phe-Arg-p-nitroanilide] (Bz-Pro-Phe-Arg-pNA), the “cleavage of substrate by mMCP-6-FLAG” value is reported as “does not effectively cleave”.

Each molecule was assayed against T2, recombinant mMCP-6-FLAG (assay: screening of tryptase-specific phage peptide display library with mMCP-6-FLAG in the absence of heparin). Settings: library incubated 4 times with mMCP-6-FLAG, 30 clones.
Format: biochemical
Text: as §1, §2

In order of rising “Clones” value:
1. ECRQRHTR  1
2. EEKKKHKK  1
3. FISRRVCR  1
4. GPRLRHPR  1
5. IRFARSQA  1
6. KKIERRNT  1
7. LCAKRLYR  1
8. LIALRSTT  1
9. LSTSRASI  1
10. NLRKRKIK  1
11. NSTVRKRK  1
12. PDNQRYIT  1
13. PLILRSRA  1
14. PLPCKLDA  1
15. PPPFRRSS  1
16. PTPLKHPR  1
17. PYPPKRTP  1
18. QKRGREPR  1
19. QRTKRKHN  1
20. RKPTKKNS  1
21. RQNRRPSN  1
22. SLALRVWR  1
23. SLSSRQSP  1
24. SPRPRSTP  1
25. TGVHKPST  1
26. VRPARALH  1
27. VRPVKSFR  2

Each molecule was assayed on mouse fibronectin (assay: in vitro degradation of fibronectin by recombinant tryptases). Settings: SDS-PAGE of digests.
Format: biochemical
Experimental: In Vitro Degradation of Fibronectin by Recombinant mMCP-6-FLAG--Five μg of purified mouse fibronectin (Alexis) was suspended in 1 mM EDTA and 25 mM sodium phosphate, pH 7.4, containing 0.01 U EK, 0.5 μg recombinant pro-EK-mMCP-6-FLAG, 0.5 μg recombinant mMCP-6-FLAG (activated with 0.01 U EK), or 0.5 μg recombinant mMCP-7FLAG (activated with 0.01 U EK). After an incubated for various lengths of times, the resulting digests were subjected to SDS-PAGE. In one experiment, the N-terminal amino acid sequences; of the major fibronectin fragments in the mMCP-FLAG digest were determined.

B2 was tested, and the “cleavage of fibronectin in vitro” value was “readily cleaved”.
